# Laboratory results published in patent US20230151068A1.
# Target: biotinylated His-Avi-TEAD (194-411) (UniProt P28347)
# Assay: SSM screen, enrichment after two rounds of sorting
row,enrichment score,Binder
1,-1.5,GSPDEYKERAKECCKKGDIQCCLRYFEESGDPNVMLICLFCP (designed binder) [I05K variant of SEQ ID NO: 1]
2,-2.47,GSPDEYIERAKSCCKKGDIQCCLRYFEESGDPNVMLICLFCP (designed binder) [E10S variant of SEQ ID NO: 1]
3,-1.02,GSMDEYIERAKECCKKGDIQCCLRYFEESGDPNVMLICLFCP (designed binder) [P01M variant of SEQ ID NO: 1]
4,-4.73,GSPDEYIERKKECCKKGDIQCCLRYFEESGDPNVMLICLFCP (designed binder) [A08K variant of SEQ ID NO: 1]
5,-2.04,GSPDEYIMRAKECCKKGDIQCCLRYFEESGDPNVMLICLFCP (designed binder) [E06M variant of SEQ ID NO: 1]
6,-6,GSPDEYIERQKECCKKGDIQCCLRYFEESGDPNVMLICLFCP (designed binder) [A08Q variant of SEQ ID NO: 1]
7,-1.35,GSPDQYIERAKECCKKGDIQCCLRYFEESGDPNVMLICLFCP (designed binder) [E03Q variant of SEQ ID NO: 1]
8,-1.01,GSPSEYIERAKECCKKGDIQCCLRYFEESGDPNVMLICLFCP (designed binder) [D02S variant of SEQ ID NO: 1]
9,-9.2,GSPDEYIERNKECCKKGDIQCCLRYFEESGDPNVMLICLFCP (designed binder) [A08N variant of SEQ ID NO: 1]
10,-2.1,GSRDEYIERAKECCKKGDIQCCLRYFEESGDPNVMLICLFCP (designed binder) [P01R variant of SEQ ID NO: 1]
11,-0.48,GSPDEYIEQAKECCKKGDIQCCLRYFEESGDPNVMLICLFCP (designed binder) [R07Q variant of SEQ ID NO: 1]
12,-0.49,GSNDEYIERAKECCKKGDIQCCLRYFEESGDPNVMLICLFCP (designed binder) [P01N variant of SEQ ID NO: 1]
13,-1.78,GSPDEYIRRAKECCKKGDIQCCLRYFEESGDPNVMLICLFCP (designed binder) [E06R variant of SEQ ID NO: 1]
14,-5.84,GSPDEYIERRKECCKKGDIQCCLRYFEESGDPNVMLICLFCP (designed binder) [A08R variant of SEQ ID NO: 1]
15,1.1,GSPDEYIERAQECCKKGDIQCCLRYFEESGDPNVMLICLFCP (designed binder) [K09Q variant of SEQ ID NO: 1]
16,0.34,GSPDEYIENAKECCKKGDIQCCLRYFEESGDPNVMLICLFCP (designed binder) [R07N variant of SEQ ID NO: 1]
17,2.57,GSPDMYIERAKECCKKGDIQCCLRYFEESGDPNVMLICLFCP (designed binder) [E03M variant of SEQ ID NO: 1]
18,0.04,GSPDENIERAKECCKKGDIQCCLRYFEESGDPNVMLICLFCP (designed binder) [Y04N variant of SEQ ID NO: 1]
19,0.31,GSPDEYIESAKECCKKGDIQCCLRYFEESGDPNVMLICLFCP (designed binder) [R07S variant of SEQ ID NO: 1]

row,enrichment score,Binder
1,-1.94,GSPDEYIERAKQCCKKGDIQCCLRYFEESGDPNVMLICLFCP (designed binder) [E10Q variant of SEQ ID NO: 1]
2,-1.81,GSPDRYIERAKECCKKGDIQCCLRYFEESGDPNVMLICLFCP (designed binder) [E03R variant of SEQ ID NO: 1]
3,-1.13,GSPDEYIKRAKECCKKGDIQCCLRYFEESGDPNVMLICLFCP (designed binder) [E06K variant of SEQ ID NO: 1]
4,3.31,GSPDEYIERANECCKKGDIQCCLRYFEESGDPNVMLICLFCP (designed binder) [K09N variant of SEQ ID NO: 1]
5,-0.74,GSPDESIERAKECCKKGDIQCCLRYFEESGDPNVMLICLFCP (designed binder) [Y04S variant of SEQ ID NO: 1]
6,-0.2,GSPQEYIERAKECCKKGDIQCCLRYFEESGDPNVMLICLFCP (designed binder) [D02Q variant of SEQ ID NO: 1]
7,-10.1,GSPDEYIERMKECCKKGDIQCCLRYFEESGDPNVMLICLFCP (designed binder) [A08M variant of SEQ ID NO: 1]
8,-2.84,GSPDEYIERAKRCCKKGDIQCCLRYFEESGDPNVMLICLFCP (designed binder) [E10R variant of SEQ ID NO: 1]
9,0.29,GSPDEQIERAKECCKKGDIQCCLRYFEESGDPNVMLICLFCP (designed binder) [Y04Q variant of SEQ ID NO: 1]
10,-2.04,GSPDEYSERAKECCKKGDIQCCLRYFEESGDPNVMLICLFCP (designed binder) [I05S variant of SEQ ID NO: 1]
11,-0.68,GSPDEMIERAKECCKKGDIQCCLRYFEESGDPNVMLICLFCP (designed binder) [Y04M variant of SEQ ID NO: 1]
12,-1.3,GSPDEYIERARECCKKGDIQCCLRYFEESGDPNVMLICLFCP (designed binder) [K09R variant of SEQ ID NO: 1]
13,-0.84,GSQDEYIERAKECCKKGDIQCCLRYFEESGDPNVMLICLFCP (designed binder) [P01Q variant of SEQ ID NO: 1]
14,0.58,GSPDNYIERAKECCKKGDIQCCLRYFEESGDPNVMLICLFCP (designed binder) [E03N variant of SEQ ID NO: 1]
15,-1.06,GSPDEYIEMAKECCKKGDIQCCLRYFEESGDPNVMLICLFCP (designed binder) [R07M variant of SEQ ID NO: 1]
16,0.13,GSSDEYIERAKECCKKGDIQCCLRYFEESGDPNVMLICLFCP (designed binder) [P01S variant of SEQ ID NO: 1]
17,-1.34,GSPDEYNERAKECCKKGDIQCCLRYFEESGDPNVMLICLFCP (designed binder) [I05N variant of SEQ ID NO: 1]
18,-0.41,GSPDSYIERAKECCKKGDIQCCLRYFEESGDPNVMLICLFCP (designed binder) [E03S variant of SEQ ID NO: 1]
19,-1.23,GSPDEYQERAKECCKKGDIQCCLRYFEESGDPNVMLICLFCP (designed binder) [I05Q variant of SEQ ID NO: 1]

row,enrichment score,Binder
1,-1.86,GSPMEYIERAKECCKKGDIQCCLRYFEESGDPNVMLICLFCP (designed binder) [D02M variant of SEQ ID NO: 1]
2,-0.91,GSPDEYIERASECCKKGDIQCCLRYFEESGDPNVMLICLFCP (designed binder) [K09S variant of SEQ ID NO: 1]
3,-0.45,GSPDEYIERAKNCCKKGDIQCCLRYFEESGDPNVMLICLFCP (designed binder) [E10N variant of SEQ ID NO: 1]
4,-0.16,GSPNEYIERAKECCKKGDIQCCLRYFEESGDPNVMLICLFCP (designed binder) [D02N variant of SEQ ID NO: 1]
5,-2.3,GSPDEYIERAKKCCKKGDIQCCLRYFEESGDPNVMLICLFCP (designed binder) [E10K variant of SEQ ID NO: 1]
6,0.47,GSPDEYIEKAKECCKKGDIQCCLRYFEESGDPNVMLICLFCP (designed binder) [R07K variant of SEQ ID NO: 1]
7,-0.94,GSPDERIERAKECCKKGDIQCCLRYFEESGDPNVMLICLFCP (designed binder) [Y04R variant of SEQ ID NO: 1]
8,-2.79,GSPDEYIERSKECCKKGDIQCCLRYFEESGDPNVMLICLFCP (designed binder) [A08S variant of SEQ ID NO: 1]
9,-0.57,GSTDEYIERAKECCKKGDIQCCLRYFEESGDPNVMLICLFCP (designed binder) [P01T variant of SEQ ID NO: 1]
10,-3.27,GSPDEYRERAKECCKKGDIQCCLRYFEESGDPNVMLICLFCP (designed binder) [I05R variant of SEQ ID NO: 1]
11,-2.41,GSPDEYIQRAKECCKKGDIQCCLRYFEESGDPNVMLICLFCP (designed binder) [E06Q variant of SEQ ID NO: 1]
12,-0.52,GSPTEYIERAKECCKKGDIQCCLRYFEESGDPNVMLICLFCP (designed binder) [D02T variant of SEQ ID NO: 1]
13,-3.56,GSPDEYIERAMECCKKGDIQCCLRYFEESGDPNVMLICLFCP (designed binder) [K09M variant of SEQ ID NO: 1]
14,-1.09,GSPDEYISRAKECCKKGDIQCCLRYFEESGDPNVMLICLFCP (designed binder) [E06S variant of SEQ ID NO: 1]
15,-0.82,GSPDEYINRAKECCKKGDIQCCLRYFEESGDPNVMLICLFCP (designed binder) [E06N variant of SEQ ID NO: 1]
16,-0.34,GSPDEYIERAKMCCKKGDIQCCLRYFEESGDPNVMLICLFCP (designed binder) [E10M variant of SEQ ID NO: 1]
17,-7.12,GSPREYIERAKECCKKGDIQCCLRYFEESGDPNVMLICLFCP (designed binder) [D02R variant of SEQ ID NO: 1]
18,-1.87,GSPDEYMERAKECCKKGDIQCCLRYFEESGDPNVMLICLFCP (designed binder) [I05M variant of SEQ ID NO: 1]
